Earlier results in publication PMC4437577.

Molecular target: PR-B (Homo sapiens) (UniProt P06401)
Experiment: analytical ultracentrifugation

Kd: 8.8 µM
Substance: PR-B (from UniProt P06401)
